Measured values published in patent US20220000998A1 (STRIKE PHARMA, published 2022).

Biological target: UU-30
Assay: cell-based or functional assay

Binder | t1/2 (min) of UU-30 in mouse plasma (LC-MS/MS)
X-SM083-bi-12 (bispecific antibody) heavy: EVQLLESGGGLVQPGGSLRLSCAASGFTFSSYAMSWVRQAPGKGLEWVSGIGGSSSYTSYADSVKGRFTISRDNSKNTLYLQMNSLRAEDTAVYYCARYYSYHMDYWGQGTLVTVSSASTKGPSVFPLAPSSRSTSESTAALGCLVKDYFPEPVTVSWNSGALTSGVHTFPAVLQSSGLYSLSSVVTVPSSNFGTQTYTCNVDHKPSNTKVDKTVERKCCVECPPCPAPPVAGPSVFLFPPKPKDTLMISRTPEVTCVVVDVSHEDPEVQFNWYVDGVEVHNAKTKPREEQFNSTFRVVSVLTVVHQDWLNGKEYKCKVSNKGLPAPIEKTISKTKGQPREPQVYTLPPSREEMTKNQVSLTCLVKGFYPSDIAVEWESNGQPENNYKTTPPMLDSDGSFFLYSKLTVDKSRWQQGNVFSCSVMHEALHNHYTQKSLSLSPGKGGGGSGGGGSQVQLQQPGAELVMPGASVNLSCKASGYTFTDYWMHWVKQRPGQGLEWIGEIDPSDNFSNLNQNFRGKATLTVDKSSRTAFLQLSSLTSEDSAVYYCAVEDYWGQGTTLTVSSGGGGSGGGGSGGGGSGGGGSDIVMTQATPSVLVTPGEAVSISCRASRSLLHSNGITYLYWFLQRPGQSPQVLIYRMSNLVSGVPDRFSGSGSGTAFTLRISRVEAEDVGVYYCMQHLEFPYTFGGGTKLEIK light: DIQMTQSPSSLSASVGDHVTITCRASQSISSYLNWYQQKPGKAPKLLIYAASSLQSGVPSRFSGSGSGTDFTLTISSLQPEDFATYYCQQYGSAPPTFGQGTKLEIK | 424 min
X-SM083-bi-9 (bispecific antibody) heavy: not shown light: DIQMTQSPSSLSASVGDHVTITCRASQSISSYLNWYQQKPGKAPKLLIYAASSLQSGVPSRFSGSGSGTDFTLTISSLQPEDFATYYCQQYGSAPPTFGQGTKLEIK | 1340 min
